Consider five substances from patent US7700107B2, “Synthetic immunogenic but non-amyloidogenic peptides homologous to amyloid β for induction of an immune response to amyloid β and amyloid deposits” (New York University, priority 2000, dated 2010).

The nature of data set [1]: Thioflavin T fluorometric assay of amyloid fibril formation in vitro. It is filed as physicochemical. Particulars: incubation at 37° C., up to at least 15 days. The method, then:
Studies of amyloid fibril formation in vitro can be performed using published protocols from the laboratory of the present inventors (Castaño et al., 1995; Wisniewski et al., 1991; Wisniewski et al., 1993 and Wisniewski et al., 1994). […] In vitro fibrillogenesis was evaluated by a fluorometric assay based on the fluorescence emission by thioflavine T, as previously described by the laboratory of the present inventors (Soto et al., 1998 and Jameson et al., 1998). Thioflavine T binds specifically to amyloid and this binding procedures a shift in its emission spectrum and a fluorescent enhancement proportional to the amount of amyloid formed (LeVine et al. 1993).
(§1) The experiments were performed as described in Example 1.

For data set [2], the system named is human neuroblastoma cell line (SK—N—SH). Briefly: Neurotoxicity, MTT assay. It is filed as cell-based. Conditions: for Toxicity to SK—N—SH cells (MTT): 2 and 6 days, vs vehicle; for Aggregates visible under the microscope in culture wells: during the incubation period, 10-100 μM. The method, then:
Briefly, cells were plated at 10,000 cells/100 μl culture medium per well in flat bottom, 96 well microtiter plates. The cells were allowed to attach to the plate overnight in an incubator (37° C., 5.0% CO2), and then 10 μl of freshly prepared peptide solution (in nanopure H2O) was added. […] Subsequent steps were as described in the assay protocol.
Data Analysis: The cell culture data was analyzed by one-way ANOVA, followed by a Dunnett's test for post hoc analysis (GraphPad Prism 3.0). An unbiased stereological image analysis system (Bioquant, R&M Biometrics Inc., Nashville, Tenn.) was used to determine the amyloid burden in 6E10 stained brain sections. The data for the amyloid burden and the levels of soluble Aβ within the brain were analyzed by a Student's t-test, two-tailed.
as §1
Data Analysis: The cell culture data was analyzed by one-way ANOVA, followed by a Newman Keuls' test for post hoc analysis (GraphPad Prism 3.0).
In general terms: Tetrazolium assays rely on reduction of a dye to a coloured formazan, in cell work by metabolically active cells.

Data set [3] can be described thus: Secondary structure by circular dichroism (CD). It is filed as physicochemical. The method, then: Secondary structure (α-helix, β-sheet, and random coil) of the peptides was evaluated by circular dichroism (CD) as described previously (Soto et al., 1998 and Soto et al., 1996). Results are expressed as molar ellipticity in units of deg cm^2 dmol^−1, and the data was analyzed by the Lincomb and CCA algorithms (Perczel et al., 1992) to obtain the percentages of different types of secondary structure.
The experimental procedure for circular dichroism is performed according to Golabek et al., (1996) and Soto et al. (1996 and 1998) as follows: CD spectra of solutions containing synthetic peptides (1-5 μM in 300 μl of 10 mM sodium phosphate, pH 7.2) is recorded in a Jasco J-720 spectropolarimeter at 25° C. using a 0.1 cm path-length cell with double distilled, deionized water and TFE (spectroscopy grade) being used as solvents. Calibration of the instrument is performed with an aqueous solution of d-(+)-10-camphorsulfonic acid. Spectra is recorded at 1 nm intervals over the wavelength range 180 to 260 nm and buffer spectra obtained under identical conditions is subtracted.

The nature of data set [4]: Solubility of freshly prepared peptide solution (in nanopure H2O). It is filed as physicochemical. Conditions: at 100 μM.

For the substance “Aβ1-30-NH2(EE18,19): modified Aβ1-30, amidated, Glu at positions 18 and 19 (SEQ ID NO:12)”, the “Fibril formation (thioflavin T)” value in data set [1] (Example 2, FIG. 5) was “did not form fibrils”.

In the case of “Aβ1-40: amyloid β peptide, sequence 1-40; control peptide”, in data set [1] (Example 2, FIG. 5), the “Fibril formation (thioflavin T)” value is reported as “gradually formed fibrils over time”. Further, the “Toxicity to SK—N—SH cells (MTT)” value is on record as “toxic” in data set [2] (Example 1, FIGS. 2A and 2B); “toxic” in data set [2] (Example 2, FIGS. 6A and 6B).

For “Aβ1-42: amyloid β peptide, sequence 1-42; control peptide”, the “alpha (secondary structure by CD)” value in data set [3] (Time 0 hr) is on record as 9%; in data set [3] (Time 24 hr), 9%; in data set [3] (Time 96 hr), 5%. The “beta-sheet (secondary structure by CD)” value in data set [3] (Time 0 hr) is 36%; in data set [3] (Time 24 hr), 40%; in data set [3] (Time 96 hr), 55%. The “random (secondary structure by CD)” value in data set [3] (Time 0 hr) stood at 55%; in data set [3] (Time 24 hr) it was 51%; in data set [3] (Time 96 hr), 40%. The “Toxicity to SK—N—SH cells (MTT)” value in data set [2] (Example 1, FIGS. 2A and 2B) was “toxic”; in data set [2] (Example 2, FIGS. 6A and 6B), “toxic”. In addition, the “Aggregates visible under the microscope in culture wells” value in data set [2] (Example 1) and in data set [2] (Example 2) was “aggregates were visible” throughout. The Solubility result in data set [4] is “only partially soluble”.

Take “Aβ1-30-NH2(DD18,19): modified Aβ1-30, amidated, Asp at positions 18 and 19 (SEQ ID NO:13)”: in data set [1] (Example 2, FIG. 5), the “Fibril formation (thioflavin T)” value was “did not form fibrils”.

With “Aβ1-30-NH2: first thirty residues of Aβ1-42 (SEQ ID NO:1), amidated at the C-terminus; control peptide”, the “Fibril formation (thioflavin T)” value was “gradually formed fibrils over time” in data set [1] (Example 1, FIG. 1) and “gradually formed fibrils over time” in data set [1] (Example 2, FIG. 5). The “alpha (secondary structure by CD)” value in data set [3] (Time 0 hr) was 5%; in data set [3] (Time 24 hr), 8%; in data set [3] (Time 96 hr), 7%. For the same substance, the “beta-sheet (secondary structure by CD)” value in data set [3] (Time 0 hr) is 37%; in data set [3] (Time 24 hr), 36%; in data set [3] (Time 96 hr), 49%. The results for the “random (secondary structure by CD)” value in data set [3] (Time 0 hr), in data set [3] (Time 24 hr) and in data set [3] (Time 96 hr) were 58%, 56% and 44%, respectively.
